In publication PMC11203266, “Continuous evolution of compact protein degradation tags regulated by selective molecular glues” (Science (New York, N.Y.), 2024):

Columns and labels:
[1] = molecular target: DDB1^ΔBPB•CRBN complex (tags cleaved, for BLI) (human) (UniProt Q96SW2); test: BLI; pomalidomide
[2] = molecular target: two-zinc finger construct containing SD0, MBP–Avi–His fusion, biotinylated (UniProt Q13422); test: FRET; saturating pomalidomide; conditions: complex
[3] = molecular target: two-zinc finger construct containing SD0, MBP–Avi–His fusion, biotinylated (UniProt Q13422); test: FRET; pomalidomide titration (compound EC50 of ternary complex formation)

two-zinc finger construct containing SD0, MBP–Avi–His fusion, biotinylated, sequence (Q13422 other isoform, or with tags, fused parts or gaps): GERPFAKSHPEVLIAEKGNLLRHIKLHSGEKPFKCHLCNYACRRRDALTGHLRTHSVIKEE
DDB1^ΔBPB•CRBN complex (tags cleaved, for BLI) (human), sequence (Q96SW2 whole entry, stated change not applied, chain 1 of 2, the tested form may be a part): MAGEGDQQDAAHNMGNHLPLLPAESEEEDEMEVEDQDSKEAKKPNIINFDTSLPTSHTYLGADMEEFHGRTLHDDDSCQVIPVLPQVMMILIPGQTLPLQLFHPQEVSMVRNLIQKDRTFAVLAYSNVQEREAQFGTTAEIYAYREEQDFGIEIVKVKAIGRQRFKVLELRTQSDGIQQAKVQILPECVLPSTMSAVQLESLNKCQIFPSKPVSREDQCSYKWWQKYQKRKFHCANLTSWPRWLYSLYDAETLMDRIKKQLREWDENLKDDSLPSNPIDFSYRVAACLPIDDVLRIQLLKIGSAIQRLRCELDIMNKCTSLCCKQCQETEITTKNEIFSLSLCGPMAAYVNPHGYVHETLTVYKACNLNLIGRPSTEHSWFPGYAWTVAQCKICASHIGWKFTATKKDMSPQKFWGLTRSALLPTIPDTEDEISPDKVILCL
DDB1^ΔBPB•CRBN complex (tags cleaved, for BLI) (human), sequence (Q16531 other isoform, or with tags, fused parts or gaps mutant, chain 2 of 2, further chain): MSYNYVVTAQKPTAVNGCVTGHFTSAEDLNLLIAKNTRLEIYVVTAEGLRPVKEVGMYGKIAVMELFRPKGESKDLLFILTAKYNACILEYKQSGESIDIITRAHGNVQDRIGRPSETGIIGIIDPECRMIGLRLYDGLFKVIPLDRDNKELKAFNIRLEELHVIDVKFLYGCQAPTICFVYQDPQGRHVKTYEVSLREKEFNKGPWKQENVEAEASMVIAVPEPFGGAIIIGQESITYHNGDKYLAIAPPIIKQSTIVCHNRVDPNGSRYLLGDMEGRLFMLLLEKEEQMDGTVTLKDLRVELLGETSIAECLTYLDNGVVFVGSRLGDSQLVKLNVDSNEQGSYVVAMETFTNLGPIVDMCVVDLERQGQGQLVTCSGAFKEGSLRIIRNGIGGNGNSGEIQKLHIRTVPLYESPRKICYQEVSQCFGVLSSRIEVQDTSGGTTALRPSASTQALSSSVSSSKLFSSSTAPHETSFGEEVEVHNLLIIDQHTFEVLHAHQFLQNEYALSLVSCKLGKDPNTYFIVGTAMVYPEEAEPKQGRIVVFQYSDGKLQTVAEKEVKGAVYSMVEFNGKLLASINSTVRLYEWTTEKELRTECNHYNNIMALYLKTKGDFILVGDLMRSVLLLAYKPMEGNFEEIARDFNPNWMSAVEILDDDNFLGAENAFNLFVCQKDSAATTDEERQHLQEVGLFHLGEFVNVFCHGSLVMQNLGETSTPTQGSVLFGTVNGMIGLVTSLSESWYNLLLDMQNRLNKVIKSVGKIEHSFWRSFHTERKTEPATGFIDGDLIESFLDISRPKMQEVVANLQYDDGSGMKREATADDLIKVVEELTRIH

Substance | Kd [1] | koff [1] | Kd [2] | EC50 [3]
two-zinc finger construct containing SD0, MBP–Avi–His fusion, biotinylated (from UniProt Q13422 141-145; Q96JP5 450-460; Q13422 157-243) | 245 nM | 0.071 s⁻¹ | – | –
CRBN–eGFP•DDB1^ΔBPB (from UniProt Q96SW2 1-442; Q16531 1-395; Q16531 706-1140) | – | – | 212 nM | 314 nM
